Data published in the nanobody polyreactivity screen of Harvey et al. (2022).

test: yeast display, Sf9 membrane polyspecificity reagent, FACS + sequencing; frameworks hold sequencing errors
Procedure, shortened: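 Genes from sorted yeast were amplified by colony PCR, read by MiSeq 2 × 250 sequencing and filtered on CDR length. These cells carried a synthetic nanobody library in Saccharomyces cerevisiae BJ5465 and were sorted by FACS into low and high (top ~1%) gates on anti-HA and streptavidin fluorescence. Polyreactivity is labelled according to the gate of origin.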

Sequence	polyreactivity (PSR sort gate)
QVQLVESGGGLVQAGGSLRLSCAASGSILYGYAMGWYRQAPGKERELYASITSDGSSNYADSVKGRFTISRDNAKNTVYFQMNSLKPEDTAVYYCAADVRLIWSASLTTSKYDYWGQGTQVTVSS	low polyreactivity
QVQLVESGGGLVQAGGSLRLSCAASGSILYINTMGWYRQAPGKERELVAAITYSGGSTYYADSVKGRLTISRDNAKNTVYLQMNRLKPEDTAVYYCAADGYYGGYNYWGQGTQVTVSS	low polyreactivity
QVQLVESGGGLVQAGGSLRLSCAASGSILYPTAMGWYTQAPGKEREFVAGITSSGSTYYADSVKGRFTISRDNAKNTVDDQMNSLKPDDTAVYYCATSVYRTYGNSVHRMNYWGQGTQVTVSS	high polyreactivity
QVQLVESGGGLVQAGGSLRLSCAASGSILYPYAMGWYRQAPGKEREFVAAITYGGGRTYYADSVKGRFTISRDNEKNTVYLHMNSLKPEDTAVYYCAARYTYSYPLFGSWGQGTQVTVSS	high polyreactivity
QVQLVESGGGLVQAGGSLRLSCAASGSILYRNAMGWYRQAPGKERELVAGITRRGGSTYYADSVKGRFTISRDNAKNTVYLQMISLKPEDTAVYYCNVQRARRQRQYGYWGQGTQVTVSS	low polyreactivity
QVQLVESGGGLVQAGGSLRLSCAASGSILYTYAMGWYRQAPGKERELVAAISRSGGSTYYADSVKGRFTISRDTAKNTVYLQMNSLKPEDTAVYYCNAVRYLTRLGRYDYWGQGTQVTVSS	high polyreactivity
QVQLVESGGGLVQAGGSLRLSCAASGSILYVNAMGWYRQAPGKERELVAVITSGGSTNNADSVKGRFTISRDNAKNTVYLQMNSLKPEDTAVYYCAADPYSVYGGDYWGQGTQVTVSS	low polyreactivity
QVQLVESGGGLVQAGGSLRLSCAASGSILYYYAMGWYRQAPGKERELVAAISWSGASTYYADSVKGRFTISRDNAKNTVYLQMNSLIPEDTAVYYCNADYTRDRYVANRYYYWGQGTQVTVSS	high polyreactivity
QVQLVESGGGLVQAGGSLRLSCAASGSILYYYAMGWYRQAPGKERELVAAISWSGASTYYADSVKGRFTISRDNAKNTVYLQMNSLKPEDTAVYDCATSYTKQGFRYYYWGQGTQVTVSS	high polyreactivity
QVQLVESGGGLVQAGGSLRLSCAASGSILYYYTMGWYRQAPGQDRELVAAITSSGGSTYYADSVKGRFTISRDNATKTVYLQMNSLKPEDTAVDYCNVDSGRSYRVARYDYWGQGTQVTVSS	low polyreactivity
QVQLVESGGGLVQAGGSLRLSCAASGSIMGWSRQAPGTERELVAAISRGGSTYYADSVKGRFTISRDNAKNTVYLQMNSLKPEDTAVYYCAAKTGGSRSRFEYWGQGTQVTVSS	high polyreactivity
QVQLVESGGGLVQAGGSLRLSCAASGSISATYAKGWYRQAPGKERELVAAISRNGGSTYYADSVKGRFTISRDNAKNTVYLQMNSLKPEDTAVYYCATSSSKSMYWGQGTQVTVSS	high polyreactivity
QVQLVESGGGLVQAGGSLRLSCAASGSISGLYAKGWYRQAPGKERELVAAITFRDGTTSYADSVKGRFTISRDNAKNTVYLQMNSLKPEDTAVYYCAAVDRDSNSSVPTLVHWGQGTQVTVSS	low polyreactivity
QVQLVESGGGLVQAGGSLRLSCAASGSISGYYAMGWYRQAPGKERELVASIRYTGARTYYADSVKGRFTISRDNAKNTVYLQMNSLKPEDTAVYYCAADFKRDRVWGGDYWGQGTQVTVSS	low polyreactivity
QVQLVESGGGLVQAGGSLRLSCAASGSISGYYAMGWYRQAPGKERELVASIRYTGARTYYADSVKGRFTSSRDNAKNTVYLQMNRLKPEDTAVFYCAADKVQYEGDAYGPPQYDYWGQGTQVTVSS	low polyreactivity
QVQLVESGGGLVQAGGSLRLSCAASGSISGYYVMGWYRQAQGKERELVAAITWRGGSTYYADSVKGRFTISRDNAKNTVYLQMNSLKPEDTAVYYCNKVPGRGSTFEYWGQGTQVTVSS	high polyreactivity
QVQLVESGGGLVQAGGSLRLSCAASGSISIGYTMGWYRQAPGKERELVATISWSGGNTYYADSVKGRFTISRDNAKNTVYLQMNSLKPEDTAVYYCAGRWYYYPLLYDYWGQGTQVTVSS	low polyreactivity
QVQLVESGGGLVQAGGSLRLSCAASGSISIGYTMGWYRQSPGKERDLVATISWSGGNTYYADSVKGRFTIARDNAKNTVYLQINSLKPEDSAVYYFAARWYYYPLLYDYWGQGTQVTVSS	low polyreactivity
QVQLVESGGGLVQAGGSLRLSCAASGSISIRNAMGWYRQAPGKERELVAAISRGGSTYYADSVKGRFTISRDNAKNKVYLQMNSLKPEDTAVYYCNVLHLRRTAIMDYWGQGTQVTVSS	high polyreactivity
QVQLVESGGGLVQAGGSLRLSCAASGSISIVYTMGWYRQAPGKERELVATISWSGGNTYYADSVKGRFTISRDYAKNTVYLQMNSLKPEDTAVYYCAARWYYYPLLYDYWGQGTQVTVSS	low polyreactivity
QVQLVESGGGLVQAGGSLRLSCAASGSISRYYAMGWYRQAPGKERELVAAISSNGGSTYYADSVKGRFTISRDNAKNTVYLQMNSLKPEDTAVYYCNAYYVGYIRYWTNKLVDYWGQGTQVTVSS	high polyreactivity
QVQLVESGGGLVQAGGSLRLSCAASGSISSFYAMGWYRQAPGKERELVAGITSGGSTNYADSVNGRFTISRDNAKNTVYLKLNSLNPEDTAVFYCAAERTPSYRAYDYWGKGTQVTVSS	low polyreactivity
QVQLVESGGGLVQAGGSLRLSCAASGSISSKNAMGWYRQAPGKEREFVAVISGTGGSTYYADSVKGRLTISRDNAKNTVYLQMNSLKPEDTAVYYCAAAASSIVSYGYTWTYGYWGQGTQVTVSS	low polyreactivity
QVQLVESGGGLVQAGGSLRLSCAASGSISSQYAMGWYRQAPGKERELVAAISYSGGSTYYADSVKGRFTISRDNAKNTVYLQMNSLKPEDTAVYYCAAETSYYTRWFDGHYYYWGQGTQVTVSS	high polyreactivity
QVQLVESGGGLVQAGGSLRLSCAASGSISSVNVMGWYRQAPGKERELVAAISSGTSTHYADSVKGRFTISRDNAKNTVYLQMNSLKPVDTAVYYCAAYFYRQYLYFLYEYDYWGQGTQVTVSS	low polyreactivity
QVQLVESGGGLVQAGGSLRLSCAASGSISTVNVMGWYRQAPGKERELVAAISSGTSTHYADSVKVRFTISRDNAKNTVYLQMNSLKPEDTAVYYCAAYFYRQYLYFLYEYDYWGQGTQVTVSS	low polyreactivity
QVQLVESGGGLVQAGGSLRLSCAASGSISWHYAMGWYRQAPGKERELVASISTDGGTTYYADSVKGRFTISRDNAKNTVYLQMNSLKPEDTAVYYCAAEWYWVYYVPYEYWGQGTQVTVSS	low polyreactivity
QVQLVESGGGLVQAGGSLRLSCAASGSISYANALGWYRQAPGKERELVAAISGSGGSTYYADSVKGRFTISRDNAKNTVYLQMNSLKPEDTAVYYCAARGFPPGDEWHPYDYWGQGTQVTVSS	low polyreactivity
QVQLVESGGGLVQAGGSLRLSCAASGSISYDYAMGWDRQAPGKERELVASITSRGGSTYADSVKGRFTISRDKAKNTVYLQMNSLKPEDTAVYYCAADAIPNLIFISLPFGLDYWGQGTQVTVSS	low polyreactivity
QVQLVESGGGLVQAGGSLRLSCAASGSISYQNAMGWYRQAPGKERELVAAITSSGGNTYYADSVKGRFTISRDNAKNTVYLQMNSLKPEDTAVYYCNAVLYYDSYLYYYWGQGTQVTVSS	low polyreactivity
